Measured values as given in article PMC9859762.

Biological target: thin filaments of membrane-permeabilized (skinned) porcine ventricular myofibrils (pig (endogenous in porcine ventricular myofibrils)) (UniProt P42639)
Assay: co-sedimentation; 23 ± 3 uM IANBD-labeled Tn incubated 4 h on ice (or overnight) with skinned porcine myofibrils (~20 mg/ml) in hypotonic rigor buffer with 6 mM ATP and 1 mg/ml BSA; myofibrils pelleted at 1,000 x g and washed; labeled cTnC relative to total cTnC on 18% SDS-PAGE (fluorescence against Coomassie)

UniProt P42639, sequence (P42639 whole entry, looked up): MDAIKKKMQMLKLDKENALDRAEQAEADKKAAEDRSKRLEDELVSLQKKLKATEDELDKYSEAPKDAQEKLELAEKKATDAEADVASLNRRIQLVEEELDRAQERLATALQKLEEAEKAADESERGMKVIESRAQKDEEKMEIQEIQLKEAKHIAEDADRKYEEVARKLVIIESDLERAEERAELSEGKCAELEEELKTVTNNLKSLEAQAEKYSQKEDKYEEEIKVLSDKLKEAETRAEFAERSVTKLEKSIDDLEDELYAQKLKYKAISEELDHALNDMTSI

“human recombinant troponin complex containing IANBD-cTnC^T53C, wild-type cTnI and wild-type cTnT (from UniProt P63316 1-161; P19429 1-210)” gave an extent of exchange (labeled cTnC relative to total cTnC in the myofibrils) of 41%.
